Here are results for 1 molecule from US5618790A, “Protease mediated drug delivery system” (Queen's University at Kingston, priority 1994, dated 1997).

Starred links: 1 amine or outer side, 2 acyl side, 3 side chain; linkers in the order of their positions; H or OH if unused. Positions of bridges follow the written chain, without caps; N, C: chain ends. Residues, ends and D or L forms follow the SMILES beside them. Chains are numbered I, II in the order given. X1 = CCC1=C(C)c2cc3[nH]c(cc4nc(cc5[nH]c(cc1n2)c(C)c5CCC(=O)[*:1])C(CCC(=O)[*:2])=C4C)c(C)c3CC

Series [1] can be described thus: Solubility of the purified compound. The format is physicochemical. The source says:
The purified compound was a purple-red powder that was quite soluble in water in neutral pH, in isotonic saline for injection (U.S.P.), and in fresh heparinized human blood and plasma. Aqueous solutions were strongly fluorescent when exposed to 410 nm light.

For series [2], the system named is Clostridium perfringens. To be noted: mouse, in vivo, 20 mg/kg.
A short description of series [3]: Toxicity after intraperitoneal injection into mice. It is filed as in vivo. To be noted: intraperitoneally, dosages up to 20 mg/kg body weight. Here is the method:
The porphyrin compound of Example 1 was injected intraperitoneally into mice at dosages up to 20 mg/kg body weight.

A short description of series [4]: Fluorescence in heparinized whole blood and plasma. It is filed as in vitro ADME. The settings on record: heparinized whole blood and plasma samples; spectrophotofluorometer. Here is the method:
Aliquots of the porphyrin compound of Example 1 were added to heparinized whole blood and plasma samples which were then examined by spectrophotofluorometer.

With `CCC1=C(C)c2cc3[nH]c(cc4nc(cc5[nH]c(cc1n2)c(C)c5CCC(=O)NCC(=O)N1CCC[C@H]1C(=O)N[C@@H](CC(C)C)C(=O)NCC(=O)N1CCC[C@H]1C(=O)N[C@@H](C)C(=O)N[C@@H](CCCCN)C(=O)N[C@@H](CCCCN)C(=O)N[C@@H](CCCCN)C(=O)N[C@@H](CCCCN)C(=O)O)C(CCC(=O)NCC(=O)N1CCC[C@H]1C(=O)N[C@@H](CC(C)C)C(=O)NCC(=O)N1CCC[C@H]1C(=O)N[C@@H](C)C(=O)N[C@@H](CCCCN)C(=O)N[C@@H](CCCCN)C(=O)N[C@@H](CCCCN)C(=O)N[C@@H](CCCCN)C(=O)O)=C4C)c(C)c3CC` [porphyrin compound of Example 1, mesoporphyrin IX (Gly--Pro--Leu--Gly--Pro--Ala--Lys--Lys--Lys--Lys)2] (I: GPLGPAKKKK-OH / II: GPLGPAKKKK-OH; linker I:N-II:N via X1), the solubility result in series [1] (fresh heparinized human blood and plasma) is recorded as “quite soluble”; in series [1] (isotonic saline for injection (U.S.P.)), “quite soluble”; in series [1] (water in neutral pH) it was “quite soluble”. Besides, the “increase of porphyrin fluorescence relative to the background fluorescence (factor)” value in series [2] is “three”. Also, in series [3], the toxic effects result is reported as “No toxic effects were observed”. For the same molecule, the “effect on fluorescence intensity (stability of the collagenase sensitive peptide)” value in series [4] is given as “No effect on fluorescence intensity”.
